According to the supplement of paper PMC9112550, “Optimization of the antimicrobial peptide Bac7 by deep mutational scanning” (BMC Biology, 2022):

Test system: Escherichia coli TOP10
Test: shrunken log2 fold change of peptide-encoding DNA abundance (4.5 h post-induction vs induction); higher = less antimicrobial activity (less host growth inhibition)
Conditions: time post-induction: 4.5 h; library: site-saturation at positions 5, 18, 19, 20
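Further: peptides expressed intracellularly from a pBAD plasmid library in pooled LB shake-flask culture, induced with 0.3% L-arabinose, DNA abundance read by NGS, three biological replicates, DESeq2 with apeglm shrinkage.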

Sequence	shrunken log2 fold change
RRIRDRPPRLPRPRPRPTVEPRP	0.766
RRIRDRPPRLPRPRPRPTVKPRP	-0.043
RRIRDRPPRLPRPRPRPTWGPRP	0.282
RRIRDRPPRLPRPRPRPTWHPRP	0.376
RRIRDRPPRLPRPRPRPTWMPRP	0.507
RRIRDRPPRLPRPRPRPTWRPRP	0.756
RRIRDRPPRLPRPRPRPTYGPRP	-0.257
RRIRDRPPRLPRPRPRPVALPRP	0.816
RRIRDRPPRLPRPRPRPVATPRP	0.814
RRIRDRPPRLPRPRPRPVCEPRP	1.18
RRIRDRPPRLPRPRPRPVCNPRP	0.861
RRIRDRPPRLPRPRPRPVDLPRP	0.0194
RRIRDRPPRLPRPRPRPVDWPRP	0.812
RRIRDRPPRLPRPRPRPVEAPRP	0.441
RRIRDRPPRLPRPRPRPVFAPRP	0.597
RRIRDRPPRLPRPRPRPVFKPRP	-0.0946
RRIRDRPPRLPRPRPRPVGEPRP	0.55
RRIRDRPPRLPRPRPRPVGNPRP	0.114
RRIRDRPPRLPRPRPRPVGPPRP	-0.286
RRIRDRPPRLPRPRPRPVHGPRP	1.43
RRIRDRPPRLPRPRPRPVHQPRP	-0.0516
RRIRDRPPRLPRPRPRPVIFPRP	0.212

Sequence	shrunken log2 fold change
RRIRDRPPRLPRPRPRPVITPRP	0.0916
RRIRDRPPRLPRPRPRPVLTPRP	0.31
RRIRDRPPRLPRPRPRPVMFPRP	0.16
RRIRDRPPRLPRPRPRPVMRPRP	0.592
RRIRDRPPRLPRPRPRPVMTPRP	0.374
RRIRDRPPRLPRPRPRPVNCPRP	-0.328
RRIRDRPPRLPRPRPRPVNYPRP	-0.116
RRIRDRPPRLPRPRPRPVQLPRP	0.0283
RRIRDRPPRLPRPRPRPVSWPRP	1.13
RRIRDRPPRLPRPRPRPVTAPRP	0.157
RRIRDRPPRLPRPRPRPVVDPRP	0.104
RRIRDRPPRLPRPRPRPVWAPRP	0.548
RRIRDRPPRLPRPRPRPVWHPRP	0.0277
RRIRDRPPRLPRPRPRPVYDPRP	-0.434
RRIRDRPPRLPRPRPRPWDFPRP	0.238
RRIRDRPPRLPRPRPRPWFDPRP	-0.15
RRIRDRPPRLPRPRPRPWFFPRP	0.673
RRIRDRPPRLPRPRPRPWFQPRP	-0.0572
RRIRDRPPRLPRPRPRPWFRPRP	-0.44
RRIRDRPPRLPRPRPRPWFTPRP	-0.175
RRIRDRPPRLPRPRPRPWGHPRP	0.0208
RRIRDRPPRLPRPRPRPWHHPRP	-0.179

Sequence	shrunken log2 fold change
RRIRDRPPRLPRPRPRPWHIPRP	-0.058
RRIRDRPPRLPRPRPRPWIDPRP	0.151
RRIRDRPPRLPRPRPRPWLPPRP	0.0708
RRIRDRPPRLPRPRPRPWMGPRP	-0.368
RRIRDRPPRLPRPRPRPWNFPRP	0.0173
RRIRDRPPRLPRPRPRPWPQPRP	-0.121
RRIRDRPPRLPRPRPRPWRDPRP	-0.0505
RRIRDRPPRLPRPRPRPWRPPRP	0.0967
RRIRDRPPRLPRPRPRPWSIPRP	-0.105
RRIRDRPPRLPRPRPRPWTFPRP	-0.22
RRIRDRPPRLPRPRPRPYCKPRP	0.0343
RRIRDRPPRLPRPRPRPYCNPRP	-0.137
RRIRDRPPRLPRPRPRPYCSPRP	-0.335
RRIRDRPPRLPRPRPRPYEGPRP	0.00106
RRIRDRPPRLPRPRPRPYEIPRP	-0.0176
RRIRDRPPRLPRPRPRPYETPRP	-0.198
RRIRDRPPRLPRPRPRPYFGPRP	-0.551
RRIRDRPPRLPRPRPRPYFNPRP	-0.849
RRIRDRPPRLPRPRPRPYFRPRP	-0.318
RRIRDRPPRLPRPRPRPYGFPRP	-0.0405
RRIRDRPPRLPRPRPRPYHRPRP	0.0231
RRIRDRPPRLPRPRPRPYIGPRP	-0.0691

Sequence	shrunken log2 fold change
RRIRDRPPRLPRPRPRPYILPRP	-0.592
RRIRDRPPRLPRPRPRPYITPRP	-0.879
RRIRDRPPRLPRPRPRPYKCPRP	-0.00925
RRIRDRPPRLPRPRPRPYKLPRP	-1.01
RRIRDRPPRLPRPRPRPYLFPRP	1.15
RRIRDRPPRLPRPRPRPYLGPRP	-0.021
RRIRDRPPRLPRPRPRPYMSPRP	-0.00753
RRIRDRPPRLPRPRPRPYMYPRP	-0.194
RRIRDRPPRLPRPRPRPYNFPRP	-0.0811
RRIRDRPPRLPRPRPRPYNHPRP	-0.704
RRIRDRPPRLPRPRPRPYNLPRP	-0.0574
RRIRDRPPRLPRPRPRPYPQPRP	-0.582
RRIRDRPPRLPRPRPRPYSCPRP	0.0113
RRIRDRPPRLPRPRPRPYSFPRP	-0.0868
RRIRDRPPRLPRPRPRPYTMPRP	-0.0014
RRIRDRPPRLPRPRPRPYVLPRP	-0.347
RRIRDRPPRLPRPRPRPYVNPRP	-1.59
RRIRDRPPRLPRPRPRPYWVPRP	-0.129
RRIRDRPPRLPRPRPRPYYTPRP	-0.817
RRIRERPPRLPRPRPRPADYPRP	-0.379
RRIRERPPRLPRPRPRPAEGPRP	-0.179
RRIRERPPRLPRPRPRPAETPRP	0.0123

Sequence	shrunken log2 fold change
RRIRERPPRLPRPRPRPAFLPRP	-0.289
RRIRERPPRLPRPRPRPAGWPRP	0.555
RRIRERPPRLPRPRPRPAKIPRP	0.039
RRIRERPPRLPRPRPRPALAPRP	0.432
RRIRERPPRLPRPRPRPAPPPRP	0.422
RRIRERPPRLPRPRPRPASKPRP	-0.12
RRIRERPPRLPRPRPRPASYPRP	-0.0425
RRIRERPPRLPRPRPRPAVKPRP	-0.0221
RRIRERPPRLPRPRPRPCCNPRP	-0.0562
RRIRERPPRLPRPRPRPCCRPRP	0.0107
RRIRERPPRLPRPRPRPCCVPRP	-0.743
RRIRERPPRLPRPRPRPCCWPRP	0.185
RRIRERPPRLPRPRPRPCCYPRP	0.00792
RRIRERPPRLPRPRPRPCDGPRP	0.142
RRIRERPPRLPRPRPRPCDIPRP	-0.329
RRIRERPPRLPRPRPRPCEAPRP	-0.041
RRIRERPPRLPRPRPRPCEQPRP	-0.0101
RRIRERPPRLPRPRPRPCHIPRP	-0.439
RRIRERPPRLPRPRPRPCHLPRP	-0.176
RRIRERPPRLPRPRPRPCHRPRP	-0.02
RRIRERPPRLPRPRPRPCIPPRP	-0.109
